Patent US20190374506

Test system: Flag-PTEN

Question: Which “in vitro ubiquitination of Flag-PTEN (E1, E2, ubiquitin; western blot with anti-PTEN antibody), WWP1 alone” value does the source give for “WW domain containing E3 ubiquitin protein ligase 1 (WWP1)” here?
Answer: The value was “incubation of WWP1 alone only slightly triggered PTEN poly-ubiquitination”.

Question: What about the “in vitro ubiquitination of Flag-PTEN, WWP1 and NEDD4-1 both present” value of the same substance?
Answer: The value was “in the presence of both WWP1 and NEDD4-1, PTEN was robustly K27-linked poly-ubiquitinated”.
